The target of test [1] is T1, Histidine-tagged recombinant human FcγRI (CD64) (human, UniProt P12314 16-288).
T1 construct: bought; also called Sino Biological Cat. No. 12056-H08H
Put plainly: SPR, captured His-receptor. (SPR reads the build-up and loss of mass on a sensor chip optically.)

Test [2] concerns the target T2, mouse FcγRI (Sino Biological Cat. No. 50086-M08H) (mouse, UniProt P26151 25-297).
T2 construct: bought
T2 sequence (looked up): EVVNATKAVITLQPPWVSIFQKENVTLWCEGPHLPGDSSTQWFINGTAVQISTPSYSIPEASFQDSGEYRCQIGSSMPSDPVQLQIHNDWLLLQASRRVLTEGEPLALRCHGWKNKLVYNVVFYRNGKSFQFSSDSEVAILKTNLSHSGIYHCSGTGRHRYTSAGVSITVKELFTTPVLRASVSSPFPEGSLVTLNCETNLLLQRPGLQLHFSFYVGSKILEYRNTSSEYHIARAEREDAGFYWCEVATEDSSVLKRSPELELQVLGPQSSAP
Put plainly: SPR, captured His-receptor.

For test [3], the target named is T3, human FcγRIIA (R131, Sino Biological Cat. No. 10374-H08H) (human, UniProt P12318 34-218).
T3 construct: bought; also called human FcγRIIa R131 allele; FcγRII allele R131
T3 sequence (looked up): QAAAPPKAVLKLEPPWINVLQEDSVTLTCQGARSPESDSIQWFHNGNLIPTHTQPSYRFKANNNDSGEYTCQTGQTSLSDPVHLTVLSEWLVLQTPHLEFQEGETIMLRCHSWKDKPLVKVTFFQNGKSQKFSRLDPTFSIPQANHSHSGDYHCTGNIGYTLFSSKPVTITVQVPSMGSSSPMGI
Put plainly: SPR, captured His-receptor.

Test [4] addresses T4, human FcγRIIB (Sino Biological Cat. No. 10259-H08H) (human, UniProt P31994 43-217).
T4 construct: bought
T4 sequence (looked up): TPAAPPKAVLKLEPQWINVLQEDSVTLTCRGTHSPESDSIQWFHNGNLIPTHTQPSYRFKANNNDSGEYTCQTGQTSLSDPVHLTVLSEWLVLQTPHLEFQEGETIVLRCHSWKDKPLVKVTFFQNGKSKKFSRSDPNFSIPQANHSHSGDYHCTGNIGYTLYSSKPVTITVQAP
Put plainly: SPR, captured His-receptor.

Test [5] has as its target T5, human FcγRIIIA (F158, Sino Biological Cat. No. 10389-H08H) (human, UniProt P08637 17-208).
T5 construct: bought; also called human FcγRIIIa F158 allele
Put plainly: SPR, captured His-receptor.

For test [6], the target named is human FcγRIIIa V158 allele (human, UniProt P08637 17-208, limits assumed). Put plainly: SPR, captured His-receptor.
The target in test [7] is T6, human FcγRIIIB (NA2 allotype, Sino Biological Cat. No. 11046-H08H) (human, UniProt O75015 17-200).
T6 construct: bought; also called human FcγRIIIb NA2 allele
Put plainly: SPR, captured His-receptor.

Test [8] deals with T7, Sheep Fc-CD52 fusion protein (Absolute Antibody Cat. No. PR00205) (human, UniProt P31358 25-36).
T7 construct: bought; also called CD52 antigen; human CD52; not shown: sheep Fc
Put plainly: ELISA, antigen coated, antibody 5 µg/mL. (ELISA stands for enzyme-linked immunosorbent assay.)

Test [9] concerns the target T8, CD3D/CD3E heterodimer (Sino Biologicals Cat. No. CT038-H2508H) (human, UniProt P04234 22-105; P07766 23-126).
T8 construct: bought; also called CD3 antigen; human CD3
Put plainly: ELISA, antigen coated, antibody 5 µg/mL.

human FcγRIIIa V158 allele, sequence (P08637 17-208 F176V limits assumed): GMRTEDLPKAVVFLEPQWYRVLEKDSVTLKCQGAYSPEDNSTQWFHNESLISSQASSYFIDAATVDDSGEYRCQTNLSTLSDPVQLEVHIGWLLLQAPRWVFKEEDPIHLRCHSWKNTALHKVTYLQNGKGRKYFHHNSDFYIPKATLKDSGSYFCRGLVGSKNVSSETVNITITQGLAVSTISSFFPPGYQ
T5 sequence (P08637 17-208 limits assumed): as the sequence (P08637 17-208 F176V limits assumed) above, with V160F counted along it

B1: anti-CD52 human IgG1 L234S/L235T/G236R (antibody)
heavy: QVQLQESGPGLVRPSQTLSLTCTVSGFTFTDFYMNWVRQPPGRGLEWIGFIRDKAKGYTTEYNPSVKGRVTMLVDTSKNQFSLRLSSVTAADTAVYYCAREGHTAAPFDYWGQGSLVTVSSASTKGPSVFPLAPSSKSTSGGTAALGCLVKDYFPEPVTVSWNSGALTSGVHTFPAVLQSSGLYSLSSVVTVPSSSLGTQTYICNVNHKPSNTKVDKKVEPKSCDKTHTCPPCPAPESTRGPSVFLFPPKPKDTLMISRTPEVTCVVVDVSHEDPEVKFNWYVDGVEVHNAKTKPREEQYNSTYRVVSVLTVLHQDWLNGKEYKCKVSNKALPAPIEKTISKAKGQPREPQVYTLPPSRDELTKNQVSLTCLVKGFYPSDIAVEWESNGQPENNYKTTPPVLDSDGSFFLYSKLTVDKSRWQQGNVFSCSVMHEALHNHYTQKSLSLSPGK
light: not shown
notes: also called 4-52; copies: 2 + 2
B1: the binding result in test [1], in test [2], in [3], in test [4], in test [5] and in test [6] was “no binding (tested: 100 µg/mL)” in each case. Also, the binding result in test [7] is reported as “no binding (tested: 100 µg/mL)”. The “Mean Absorbance” value in test [8] is 1.44 absorbance.

B2: anti-CD52 human IgG1 L234S/L235V/G236R (antibody)
heavy: QVQLQESGPGLVRPSQTLSLTCTVSGFTFTDFYMNWVRQPPGRGLEWIGFIRDKAKGYTTEYNPSVKGRVTMLVDTSKNQFSLRLSSVTAADTAVYYCAREGHTAAPFDYWGQGSLVTVSSASTKGPSVFPLAPSSKSTSGGTAALGCLVKDYFPEPVTVSWNSGALTSGVHTFPAVLQSSGLYSLSSVVTVPSSSLGTQTYICNVNHKPSNTKVDKKVEPKSCDKTHTCPPCPAPESVRGPSVFLFPPKPKDTLMISRTPEVTCVVVDVSHEDPEVKFNWYVDGVEVHNAKTKPREEQYNSTYRVVSVLTVLHQDWLNGKEYKCKVSNKALPAPIEKTISKAKGQPREPQVYTLPPSRDELTKNQVSLTCLVKGFYPSDIAVEWESNGQPENNYKTTPPVLDSDGSFFLYSKLTVDKSRWQQGNVFSCSVMHEALHNHYTQKSLSLSPGK
light: not shown
notes: also called 4-53; copies: 2 + 2
With B2, the binding result in [1], in [2], in test [3], in [4], in [5] and in test [6] was “no binding (tested: 100 µg/mL)” each time. Further, in test [7], the binding result is recorded as “no binding (tested: 100 µg/mL)”. In test [8], the “Mean Absorbance” value was determined as 1.23 absorbance.

B3: anti-CD52 human IgG1 L234G/L235S/G236R (antibody)
heavy: QVQLQESGPGLVRPSQTLSLTCTVSGFTFTDFYMNWVRQPPGRGLEWIGFIRDKAKGYTTEYNPSVKGRVTMLVDTSKNQFSLRLSSVTAADTAVYYCAREGHTAAPFDYWGQGSLVTVSSASTKGPSVFPLAPSSKSTSGGTAALGCLVKDYFPEPVTVSWNSGALTSGVHTFPAVLQSSGLYSLSSVVTVPSSSLGTQTYICNVNHKPSNTKVDKKVEPKSCDKTHTCPPCPAPEGSRGPSVFLFPPKPKDTLMISRTPEVTCVVVDVSHEDPEVKFNWYVDGVEVHNAKTKPREEQYNSTYRVVSVLTVLHQDWLNGKEYKCKVSNKALPAPIEKTISKAKGQPREPQVYTLPPSRDELTKNQVSLTCLVKGFYPSDIAVEWESNGQPENNYKTTPPVLDSDGSFFLYSKLTVDKSRWQQGNVFSCSVMHEALHNHYTQKSLSLSPGK
light: not shown
notes: also called 4-19; copies: 2 + 2
B3: the binding result in test [1], in test [2], in test [3], in [4], in test [5] and in test [6] was “no binding (tested: 100 µg/mL)” throughout. Moreover, the binding result in test [7] is on record as “no binding (tested: 100 µg/mL)”. In addition, in test [8], the “Mean Absorbance” value amounted to 1.13 absorbance.

B4: anti-CD3 (muromonab variable regions) human IgG1 wild type reference (antibody)
heavy: not shown
light: QIVLTQSPAIMSASPGEKVTMTCSASSSVSYMNWYQQKSGTSPKRWIYDTSKLASGVPAHFRGSGSGTSYSLTISGMEAEDAATYYCQQWSSNPFTFGSGTKLEIKRTVAAPSVFIFPPSDEQLKSGTASVVCLLNNFYPREAKVQWKVDNALQSGNSQESVTEQDSKDSTYSLSSTLTLSKADYEKHKVYACEVTHQGLSSPVTKSFNRGEC
notes: also called 3-1; wild-type CD3 antibody
Consider B4, for which the “Mean Absorbance” value in test [9] was determined as 1.01 absorbance; in test [8] it was 0.006 absorbance.

B5: anti-CD3 human IgG1 L234T/L235T/G236R (antibody)
heavy: not shown
light: QIVLTQSPAIMSASPGEKVTMTCSASSSVSYMNWYQQKSGTSPKRWIYDTSKLASGVPAHFRGSGSGTSYSLTISGMEAEDAATYYCQQWSSNPFTFGSGTKLEIKRTVAAPSVFIFPPSDEQLKSGTASVVCLLNNFYPREAKVQWKVDNALQSGNSQESVTEQDSKDSTYSLSSTLTLSKADYEKHKVYACEVTHQGLSSPVTKSFNRGEC
notes: also called 3-63; copies: 2 + 2
Consider B5, for which the binding result in test [1], in test [2], in test [3], in test [4] and in test [7] was “no binding (tested: 100 µg/mL)” throughout. For the same molecule, the “Mean Absorbance” value in [9] was 1.04 absorbance.

B6: anti-CD3 human IgG1 L234G/L235S/G236R (antibody)
heavy: not shown
light: QIVLTQSPAIMSASPGEKVTMTCSASSSVSYMNWYQQKSGTSPKRWIYDTSKLASGVPAHFRGSGSGTSYSLTISGMEAEDAATYYCQQWSSNPFTFGSGTKLEIKRTVAAPSVFIFPPSDEQLKSGTASVVCLLNNFYPREAKVQWKVDNALQSGNSQESVTEQDSKDSTYSLSSTLTLSKADYEKHKVYACEVTHQGLSSPVTKSFNRGEC
notes: also called 3-19; copies: 2 + 2
In the case of B6, the binding result in [1], in [2], in [3], in [4] and in [7] was “no binding (tested: 100 µg/mL)” each time. Besides, in test [9], the “Mean Absorbance” value was found to be 1.24 absorbance.

B7: anti-CD3 human IgG1 L234S/L235V/G236R (antibody)
heavy: not shown
light: QIVLTQSPAIMSASPGEKVTMTCSASSSVSYMNWYQQKSGTSPKRWIYDTSKLASGVPAHFRGSGSGTSYSLTISGMEAEDAATYYCQQWSSNPFTFGSGTKLEIKRTVAAPSVFIFPPSDEQLKSGTASVVCLLNNFYPREAKVQWKVDNALQSGNSQESVTEQDSKDSTYSLSSTLTLSKADYEKHKVYACEVTHQGLSSPVTKSFNRGEC
notes: also called 3-53; copies: 2 + 2
B7: the binding result in [1], in test [2], in [3], in test [4] and in test [7] was “no binding (tested: 100 µg/mL)” throughout. For the same molecule, the “Mean Absorbance” value in test [9] was 1.25 absorbance.

B8: anti-CD3 human IgG1 L234T/L235Q/G236R (antibody)
heavy: not shown
light: QIVLTQSPAIMSASPGEKVTMTCSASSSVSYMNWYQQKSGTSPKRWIYDTSKLASGVPAHFRGSGSGTSYSLTISGMEAEDAATYYCQQWSSNPFTFGSGTKLEIKRTVAAPSVFIFPPSDEQLKSGTASVVCLLNNFYPREAKVQWKVDNALQSGNSQESVTEQDSKDSTYSLSSTLTLSKADYEKHKVYACEVTHQGLSSPVTKSFNRGEC
notes: also called 3-60; copies: 2 + 2
B8: the binding result in test [1], in [2], in test [3], in test [4] and in test [7] was “no binding (tested: 100 µg/mL)” throughout. Moreover, the “Mean Absorbance” value in test [9] was found to be 1.33 absorbance.

Source of the values: patent US20230235013A1 (MABSOLVE, published 2023).
